Data published in PMC2709225 (Nature structural & molecular biology, 2009).

Target: the molecule itself
Experiment: SEC-MALS

B1: stabilised full-length ectodomain of human hedgehog-interacting protein HIP (eHIPS) (domain or fragment, UniProt Q96QV1-1 56-670, looked up)
chain: MSQLELLSGGEMLCGGFYPRLSCCLRSDSPGLGRLENKIFSVTNNTECGKLLEEIKCALCSPHSQSLFHSPEREVLERDLVLPLLCKDYCKEFFYTCRGHIPGFLQTTADEFCFYYARKDGGLCFPDFPRKQVAGPASNYLDQMEEYDKVEEISAAHKHNCFCIQEVVSGLRQPVGALHSGDGSQRLFILEKEGYVKILTPEGEIFKEPYLDIHKLVQSGIKGGDERGLLSLAFHPNYKKNGKLYVSYTTNQERWAIGPHDHILRVVEYTVSRKNPHQVDLRTARVFLEVAELHRKHLGGQLLFGPDGFLYIILGDGMITLDDMEEMDGLSDFTGSVLRLDVDTDMCNVPYSIPRSNPHFNSTNQPPEVFAHGLHDPGRCAVDRHPTDININLTILCSDSNGKNRSSARILQIIKGKDYESEPSLLEFKPFSNGPLVGGFVYRGCQSERLYGSYVFGDRNGNFLTLQQSPVTKQWQEKPLCLGTSGSCRGYFSGHILGFGEDELGEVYILSSSKSMTQTHNGKLYKIVDPKRPLMPEECRATVQPAQTLTSECSRLCRNGYCTPTGKCCCSPGWEGDFCRTAKCEPACRHGGVCVRPNKCLCKKGYLGPQCEQVD
modifications: enzymatically biotinylated within an engineered C-terminal tag (form attached to the SPR surface); fully glycosylated for MALS
stoichiometry N: 2
